Measurements taken from the supplement of paper PMC7125110.
± gives the standard error. For part of these data: Fewer inactive variants are shown than the library holds.

B1: glmS ribozyme (parent)
chain: AUAAAAGCGCCAGAACUACAGAAAUGUAGUUGACGAGGAGGAGGUUUAUCGAAUUUUCGGCGGAUGCCUCCAAA

Columns and labels:
Settings in all cases: with glucosamine-6-phosphate
glucosamine-6-phosphate [1] = variants of: B1; assay: kcat; higher = faster cleavage; RNA array
Method in brief: (§1)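 Tiles of sequenced MiSeq chips were imaged over ~14 h at 37 °C. On them, barcoded ribozyme variants had been transcribed in situ by E. coli RNA polymerase and were tracked via a hybridised Cy3 probe while glucosamine-6-phosphate (40 μM to 10 mM) in HEPES/KCl/Mg(OAc)2 buffer flowed in. Per-tile medians, normalised to baseline and to non-cleaving reference variants, were fit to one- or two-exponential decays for kobs, and weighted Michaelis–Menten fits gave kcat and KM.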

glucosamine-6-phosphate [2] = variants of: B1; assay: KM; higher = weaker cofactor use; RNA array
Method in brief: as §1

glucosamine-6-phosphate [3] = variants of: B1; assay: self-cleavage kobs at 640 uM GlcN6P; higher = faster cleavage; RNA array
Method in brief: as §1

glucosamine-6-phosphate [4] = variants of: B1; assay: self-cleavage kobs at 2500 uM GlcN6P; higher = faster cleavage; RNA array
Method in brief: as §1

glucosamine-6-phosphate [5] = variants of: B1; assay: self-cleavage kobs at 10000 uM GlcN6P; higher = faster cleavage; RNA array
Method in brief: as §1

glucosamine-6-phosphate [6] = variants of: B1; assay: self-cleavage kobs at 40 uM GlcN6P; higher = faster cleavage; RNA array
Method in brief: as §1

glucosamine-6-phosphate [7] = variants of: B1; assay: self-cleavage kobs at 160 uM GlcN6P; higher = faster cleavage; RNA array
Method in brief: as §1

Variant | kcat (glucosamine-6-phosphate [1]) [s⁻¹] | KM (glucosamine-6-phosphate [2]) [µM] | self-cleavage kobs at 640 uM GlcN6P (glucosamine-6-phosphate [3]) [s⁻¹] | self-cleavage kobs at 2500 uM GlcN6P (glucosamine-6-phosphate [4]) [s⁻¹] | self-cleavage kobs at 10000 uM GlcN6P (glucosamine-6-phosphate [5]) [s⁻¹] | self-cleavage kobs at 40 uM GlcN6P (glucosamine-6-phosphate [6]) [s⁻¹] | self-cleavage kobs at 160 uM GlcN6P (glucosamine-6-phosphate [7]) [s⁻¹]
G44A U56A | 0.00026 ± 6.2e-06 | 2650 ± 150 | 4.93e-05 ± 1.6e-05 | 0.00013 ± 2.6e-05 | 0.000205 ± 2.9e-05 | – | –
G62A U69A | 3.46e-05 ± 8.1e-06 | – | – | – | – | – | –
C10U A14C | < 1e-05 | – | – | – | – | < 1e-05 | –
U30G A53C | 0.00231 ± 0.0004 | 2690 ± 910 | 0.000512 ± 0.0001 | 0.00138 ± 0.00034 | 0.00177 ± 0.00022 | – | 0.000159 ± 6.4e-05
U31C C50A | < 1e-05 | – | – | – | – | < 1e-05 | –
G40A U65A | 0.00131 ± 0.0003 | 2690 ± 980 | 0.000213 ± 4.3e-05 | 0.000615 ± 0.00011 | 0.00106 ± 0.00012 | 3.89e-05 ± 8.4e-06 | 7.08e-05 ± 1.3e-05
G13A G29A | 0.000248 ± 8.5e-06 | 4980 ± 320 | – | 8.32e-05 ± 1.2e-05 | 0.000165 ± 2.4e-05 | – | –
C58A A64C | < 1e-05 | – | – | – | – | < 1e-05 | –
G29U G59C | < 1e-05 | – | – | < 1e-05 | < 1e-05 | < 1e-05 | –
A48G U57C | 1.23e-05 ± 2.5e-06 | – | – | – | – | – | –
A12G A52U | < 1e-05 | – | < 1e-05 | – | – | < 1e-05 | –
A12C A42G | 0.0188 ± 0.0076 | – | 0.00579 ± 0.0016 | 0.0085 ± 0.0026 | 0.0248 ± 0.0036 | 0.00118 ± 0.00019 | 0.00222 ± 0.00053
G41U A53C | 0.000167 ± 4e-05 | – | 5.64e-05 ± 1.2e-05 | 7.23e-05 ± 9.5e-06 | 0.000139 ± 1.2e-05 | < 1e-05 | –
C10A U65G | < 1e-05 | – | < 1e-05 | < 1e-05 | < 1e-05 | < 1e-05 | –
A15U G66U | 0.000139 ± 1.2e-05 | 717 ± 180 | 6.31e-05 ± 9.8e-06 | 0.000153 ± 4.4e-05 | 0.000127 ± 1.5e-05 | – | –
A6G A12G | 1.13e-05 ± 1.3e-06 | – | – | – | – | – | –
A15C C70G | 7.11e-05 ± 7.6e-06 | – | 6.25e-05 ± 8.5e-06 | 8.13e-05 ± 1e-05 | 5.86e-05 ± 9.3e-06 | – | 3.9e-05 ± 9.7e-06
A6C C71U | 9.59e-05 ± 6.3e-06 | 1150 ± 280 | 2.89e-05 ± 1.2e-05 | 7.07e-05 ± 9.3e-06 | 8.35e-05 ± 9.7e-06 | – | –

Variant | kcat (glucosamine-6-phosphate [1]) [s⁻¹] | KM (glucosamine-6-phosphate [2]) [µM] | self-cleavage kobs at 640 uM GlcN6P (glucosamine-6-phosphate [3]) [s⁻¹] | self-cleavage kobs at 2500 uM GlcN6P (glucosamine-6-phosphate [4]) [s⁻¹] | self-cleavage kobs at 10000 uM GlcN6P (glucosamine-6-phosphate [5]) [s⁻¹] | self-cleavage kobs at 40 uM GlcN6P (glucosamine-6-phosphate [6]) [s⁻¹] | self-cleavage kobs at 160 uM GlcN6P (glucosamine-6-phosphate [7]) [s⁻¹]
A14C G60A | < 1e-05 | – | < 1e-05 | – | – | < 1e-05 | –
A42C C67G | 8.04e-05 ± 1.5e-05 | – | – | 6.32e-05 ± 1.4e-05 | 6.4e-05 ± 4.6e-06 | – | –
A52U | 0.000465 ± 1.7e-05 | 2960 ± 200 | 8.16e-05 ± 1.8e-06 | 0.000223 ± 4.8e-06 | 0.000355 ± 5.5e-06 | – | 2.13e-05 ± 1.9e-06
A12C U54G | 0.0218 ± 0.01 | – | 0.00452 ± 0.00083 | 0.0102 ± 0.0016 | 0.0271 ± 0.0095 | 0.000492 ± 7.4e-05 | 0.0011 ± 0.00016
U30G G32C | 0.000158 ± 2.5e-05 | – | – | 0.000149 ± 3e-05 | 0.000134 ± 1.6e-05 | – | –
U55G G60C | < 1e-05 | – | – | – | – | – | < 1e-05
G37U U46G | < 1e-05 | – | < 1e-05 | – | – | – | –
C16G C71G | 0.000131 ± 1.2e-05 | 303 ± 130 | 8e-05 ± 1.3e-05 | 0.000114 ± 1.3e-05 | 0.00014 ± 1.8e-05 | – | 6.73e-05 ± 2.1e-05
G41A A53U | 0.000693 ± 8.4e-05 | 562 ± 120 | 0.000358 ± 5.8e-05 | 0.00063 ± 0.00014 | 0.000656 ± 0.0001 | 5.42e-05 ± 9e-06 | 0.00012 ± 3.1e-05
A6G A15C | 7.64e-05 ± 3.5e-06 | 1700 ± 240 | – | 4.69e-05 ± 9.3e-06 | 6.45e-05 ± 1.1e-05 | < 1e-05 | –
A48U C50G G59U G66U | 1.53e-05 ± 4.3e-06 | – | – | – | – | – | < 1e-05
C58U C70G | 1.93e-05 ± 3.5e-06 | – | 2.38e-05 ± 9.2e-06 | 2.22e-05 ± 1e-05 | – | – | –
A12C U65C | 0.00043 ± 7.3e-05 | 1950 ± 620 | 0.000102 ± 1.9e-05 | 0.000328 ± 8.4e-05 | 0.000343 ± 6.2e-05 | – | –
A12G A53U C67U | 0.000372 ± 8.2e-05 | 6210 ± 2000 | – | 0.00011 ± 1.7e-05 | 0.00022 ± 7.2e-05 | – | –
A12C U45A A64U | 0.00036 ± 8.2e-05 | 5800 ± 2500 | 2.84e-05 ± 1.2e-05 | 0.000134 ± 3.1e-05 | 0.000223 ± 3.2e-05 | – | –
A12C G43U | 5.32e-05 ± 9.5e-07 | 1200 ± 86 | – | 3.6e-05 ± 8e-06 | 4.74e-05 ± 9.2e-06 | – | –
U45C C70U | 0.0085 ± 0.0033 | 4580 ± 2200 | 0.000855 ± 0.00011 | 0.00283 ± 0.00041 | 0.00646 ± 0.00093 | 0.000103 ± 1.3e-05 | 0.000303 ± 4.5e-05
G13C C34U G35U | < 1e-05 | – | – | < 1e-05 | < 1e-05 | < 1e-05 | < 1e-05
